Reference: paper PMC7610479

What was measured:
[1] = target: Survival Motor Neuron (SMN) protein, recombinant (UniProt Q16637); assay: SPR
[2] = target: recombinant SMN (Survival Motor Neuron protein) (UniProt Q16637); assay: SPR

Row | Substance | Kd [1] [pM] | Kd [2] [pM] | koff [2] [s⁻¹] | kon [2] [M⁻¹ s⁻¹]
1 | purified SMN-free 80S ribosomes from NSC-34 cells depleted from SMN (from UniProt P61255 1-145) (complex) | 10 |  |  | 
2 | purified SMN-free 80S ribosomes from NSC-34 cells depleted of SMN (complex) |  | 9.8 | 9.4e-05 | 9.7e+06
